We go through 72 molecules from patent publication US20250011363A1, “OPTIMIZED SHORTENED PEPTIDE THAT BINDS TO ACETYLCHOLINE RECEPTOR, AND USE THEREOF” (SKINMED CO., LTD., priority 2021, published 2025).

The assay deals with acetylcholine receptor. The assay can be described thus: SPR, AchR immobilized on CM5 chip, peptide at 10 uM. On the technique in general: SPR reads the build-up and loss of mass on a sensor chip optically.

B1: 5mer-1034 (peptide)
peptide: RFAKK
The molecule B1 registered a Binding affinity (RU) of 14 RU.

B2: 5mer-1037 (peptide)
peptide: KKSFR
With B2, the Binding affinity (RU) turned out to be 28 RU.

B3: 5mer-1015 (peptide)
peptide: RCWMK
B3 came in with a Binding affinity (RU) of 30 RU.

B4: 5mer-723 (peptide)
peptide: RASPR
For B4, the Binding affinity (RU) was 22 RU.

B5: 5mer-747 (peptide)
peptide: RKTDK
As for B5, the Binding affinity (RU) came to 31 RU.

B6: 5mer-719 (peptide)
peptide: KISER
Regarding B6, the Binding affinity (RU) turned out to be 21 RU.

B7: 5mer-729 (peptide)
peptide: KEPDK
In turn, B7 showed a Binding affinity (RU) of 23 RU.

B8: 5mer-1035 (peptide)
peptide: KEHVR
For the molecule B8, the Binding affinity (RU) worked out at 19 RU.

B9: 5mer-726 (peptide)
peptide: KATMK
Consider B9, for which the Binding affinity (RU) came to 33 RU.

B10: 5mer-735 (peptide)
peptide: RHCER
For B10, the Binding affinity (RU) turned out to be 11 RU.

B11: 5mer-1013 (peptide)
peptide: KCCVK
As for B11, the Binding affinity (RU) amounted to 19 RU.

B12: 5mer-715 (peptide)
peptide: KCNGR
As for B12, the Binding affinity (RU) is 22 RU.

B13: 5mer-741 (peptide)
peptide: KPTPR
Take B13: the Binding affinity (RU) was determined as 14 RU.

B14: 5mer-1028 (peptide)
peptide: RMAMR
For the molecule B14, the Binding affinity (RU) amounted to 28 RU.

B15: 5mer-1022 (peptide)
peptide: KIADK
For the molecule B15, the Binding affinity (RU) was found to be 29 RU.

B16: 5mer-746 (peptide)
peptide: RMTVK
The molecule B16 registered a Binding affinity (RU) of 26 RU.

B17: 5mer-742 (peptide)
peptide: RNSDK
Consider B17, for which the Binding affinity (RU) was 11 RU.

B18: 5mer-1019 (peptide)
peptide: RFKFK
B18 yielded a Binding affinity (RU) of 28 RU.

B19: 5mer-737 (peptide)
peptide: RINVR
The molecule B19 displayed a Binding affinity (RU) of 13 RU.

B20: 5mer-1014 (peptide)
peptide: RKNKR
As to B20, the Binding affinity (RU) is 23 RU.

B21: 5mer-1044 (peptide)
peptide: RDCFK
The molecule B21 registered a Binding affinity (RU) of 22 RU.

B22: 5mer-1036 (peptide)
peptide: KTHMK
B22 came in with a Binding affinity (RU) of 23 RU.

B23: 5mer-1017 (peptide)
peptide: RCTWK
The molecule B23 returned a Binding affinity (RU) of 24 RU.

B24: 5mer-1042 (peptide)
peptide: RCCAK
Turning to B24, the Binding affinity (RU) amounted to 28 RU.

B25: 5mer-733 (peptide)
peptide: KTCDR
In turn, B25 returned a Binding affinity (RU) of 23 RU.

B26: 5mer-727 (peptide)
peptide: KMDAR
For the molecule B26, the Binding affinity (RU) worked out at 31 RU.

B27: 5mer-712 (peptide)
peptide: RADFK
With B27, the Binding affinity (RU) was 18 RU.

B28: 5mer-721 (peptide)
peptide: RYSKK
As to B28, the Binding affinity (RU) worked out at 22 RU.

B29: 5mer-732 (peptide)
peptide: KIMWR
Molecule B29 came in with a Binding affinity (RU) of 22 RU.

B30: 5mer-1038 (peptide)
peptide: KCCKR
As for B30, the Binding affinity (RU) came out at 17 RU.

B31: 5mer-740 (peptide)
peptide: RMMGK
For the molecule B31, the Binding affinity (RU) turned out to be 21 RU.

B32: 5mer-745 (peptide)
peptide: RMEIK
In turn, B32 registered a Binding affinity (RU) of 14 RU.

B33: 5mer-1045 (peptide)
peptide: KMDEK
The molecule B33 displayed a Binding affinity (RU) of 22 RU.

B34: 5mer-718 (peptide)
peptide: RNKKK
In turn, B34 registered a Binding affinity (RU) of 19 RU.

B35: 5mer-1025 (peptide)
peptide: RHKWK
B35 returned a Binding affinity (RU) of 25 RU.

B36: 5mer-1018 (peptide)
peptide: KFWAK
The molecule B36 came in with a Binding affinity (RU) of 20 RU.

B37: 5mer-1039 (peptide)
peptide: KKDVK
B37: the Binding affinity (RU) stood at 32 RU.

B38: 5mer-738 (peptide)
peptide: KTPMK
For B38, the Binding affinity (RU) turned out to be 29 RU.

B39: 5mer-1041 (peptide)
peptide: RDWFK
Molecule B39 showed a Binding affinity (RU) of 27 RU.

B40: 5mer-734 (peptide)
peptide: KATER
For B40, the Binding affinity (RU) stood at 16 RU.

B41: 5mer-744 (peptide)
peptide: KTEAK
In the case of B41, the Binding affinity (RU) turned out to be 32 RU.

B42: 5mer-1024 (peptide)
peptide: KIDNK
The molecule B42 showed a Binding affinity (RU) of 26 RU.

B43: 5mer-1020 (peptide)
peptide: KCKVK
The molecule B43 had a Binding affinity (RU) of 12 RU.

B44: 5mer-720 (peptide)
peptide: KDPKR
In turn, B44 came in with a Binding affinity (RU) of 32 RU.

B45: 5mer-1031 (peptide)
peptide: RKEER
As to B45, the Binding affinity (RU) was determined as 13 RU.

B46: 5mer-739 (peptide)
peptide: KDCPR
As for B46, the Binding affinity (RU) stood at 16 RU.

B47: 5mer-1021 (peptide)
peptide: KITHK
B47 came in with a Binding affinity (RU) of 26 RU.

B48: 5mer-713 (peptide)
peptide: KYPKK
For B48, the Binding affinity (RU) is 16 RU.

B49: 5mer-722 (peptide)
peptide: KNHKK
Turning to B49, the Binding affinity (RU) came to 33 RU.

B50: 5mer-728 (peptide)
peptide: KPHIK
Turning to B50, the Binding affinity (RU) was determined as 19 RU.

B51: 5mer-717 (peptide)
peptide: KCKFR
B51 yielded a Binding affinity (RU) of 20 RU.

B52: 5mer-730 (peptide)
peptide: KFCNK
On to B52, for which the Binding affinity (RU) is 27 RU.

B53: 5mer-1026 (peptide)
peptide: RNAVR
Molecule B53 came in with a Binding affinity (RU) of 20 RU.

B54: 5mer-1011 (peptide)
peptide: KTDMK
As to B54, the Binding affinity (RU) amounted to 25 RU.

B55: 5mer-743 (peptide)
peptide: KYAFR
In turn, B55 gave a Binding affinity (RU) of 15 RU.

B56: 5mer-714 (peptide)
peptide: RPCAK
Turning to B56, the Binding affinity (RU) worked out at 32 RU.

B57: 5mer-1012 (peptide)
peptide: RHKVR
Molecule B57 gave a Binding affinity (RU) of 22 RU.

B58: 5mer-725 (peptide)
peptide: RNADR
In turn, B58 came in with a Binding affinity (RU) of 19 RU.

B59: 5mer-731 (peptide)
peptide: KADHK
In turn, B59 returned a Binding affinity (RU) of 18 RU.

B60: 5mer-1023 (peptide)
peptide: RYCKK
For B60, the Binding affinity (RU) was determined as 13 RU.

B61: 5mer-1033 (peptide)
peptide: REWDK
For the molecule B61, the Binding affinity (RU) came out at 28 RU.

B62: 5mer-1030 (peptide)
peptide: RISDK
Molecule B62 showed a Binding affinity (RU) of 18 RU.

B63: 5mer-724 (peptide)
peptide: KTTAK
For B63, the Binding affinity (RU) was found to be 14 RU.

B64: 5mer-736 (peptide)
peptide: KKHHR
B64 displayed a Binding affinity (RU) of 24 RU.

B65: 5mer-1046 (peptide)
peptide: KHTMR
B65: the Binding affinity (RU) is 19 RU.

B66: 5mer-716 (peptide)
peptide: KINVR
The molecule B66 registered a Binding affinity (RU) of 25 RU.

B67: 5mer-1032 (peptide)
peptide: RHHMR
The molecule B67 registered a Binding affinity (RU) of 23 RU.

B68: 5mer-1016 (peptide)
peptide: KYTMR
As for B68, the Binding affinity (RU) amounted to 28 RU.

B69: 5mer-1040 (peptide)
peptide: KTPWR
B69 returned a Binding affinity (RU) of 17 RU.

B70: 5mer-1043 (peptide)
peptide: KFEMK
For B70, the Binding affinity (RU) is 15 RU.

B71: 5mer-1027 (peptide)
peptide: KNTNR
With B71, the Binding affinity (RU) stood at 28 RU.

B72: 5mer-1029 (peptide)
peptide: KADIK
With B72, the Binding affinity (RU) stood at 25 RU.
